7 molecules from patent US20230220084A1 (DRAGONFLY THERAPEUTICS, published 2023) can be followed below.

Numbering of substitutions follows the chain as printed.

The target of assay [1] is T1, human CLEC12A expressed on cells (human, UniProt Q5QGZ9 1-265).
T1 construct: whole, on cells; also called RMA-hCLEC12A; hCLEC12A+Ba/F3
T1 sequence (looked up): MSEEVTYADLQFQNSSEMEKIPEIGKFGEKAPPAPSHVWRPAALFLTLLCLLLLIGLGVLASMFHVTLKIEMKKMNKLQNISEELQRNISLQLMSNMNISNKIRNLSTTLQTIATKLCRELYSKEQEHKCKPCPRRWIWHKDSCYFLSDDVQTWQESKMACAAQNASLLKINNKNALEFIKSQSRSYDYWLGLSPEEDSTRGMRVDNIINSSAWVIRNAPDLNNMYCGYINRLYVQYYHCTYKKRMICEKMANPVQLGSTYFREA
Kind of assay: flow cytometry, PL21 cells. Background: Flow cytometry measures light scatter and fluorescence of single cells or particles in a stream.

Assay [2] has as its target T2, cCLEC12A-His (cynomolgus monkey, UniProt A0A2K5WXQ4 71-271).
T2 construct: Recombinant His-tagged cynomolgus CLEC12A; also called Cyno CLEC12A-His; recombinant cyno CLEC12A
T2 sequence: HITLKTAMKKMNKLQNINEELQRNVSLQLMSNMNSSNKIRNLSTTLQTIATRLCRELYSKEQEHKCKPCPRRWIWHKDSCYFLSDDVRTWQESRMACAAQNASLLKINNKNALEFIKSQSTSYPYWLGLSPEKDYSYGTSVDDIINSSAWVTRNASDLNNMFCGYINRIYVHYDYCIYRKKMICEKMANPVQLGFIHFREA
Kind of assay: SPR, purified murine mAb, Cyno CLEC12A-His. A general note: SPR reads the build-up and loss of mass on a sensor chip optically.

Assay [3] concerns the target T3, hCLEC12A-His fusion protein (human, UniProt Q5QGZ9 65-265, limits assumed).
T3 construct: Recombinant His-tagged human CLEC12A; also called Human CLEC12A-His; recombinant human CLEC12A
T3 sequence (looked up): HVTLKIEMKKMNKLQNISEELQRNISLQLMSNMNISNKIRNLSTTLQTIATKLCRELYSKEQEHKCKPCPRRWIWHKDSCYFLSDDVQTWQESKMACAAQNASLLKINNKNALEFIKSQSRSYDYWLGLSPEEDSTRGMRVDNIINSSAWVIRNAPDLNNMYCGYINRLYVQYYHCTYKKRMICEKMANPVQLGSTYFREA
Kind of assay: yeast display flow cytometry with hCLEC12A-his (PE-A against FITC-A).

Assay [4] deals with T3, hCLEC12A-His fusion protein. Kind of assay: SPR, purified murine mAb.

B1: 9E4.B7 (antibody, V domains shown)
VH: EVQLQESGAELMKPGASVKISCRTTGYTFSTYWIEWVKQRPGRGPEWIGELFPGNSDTTLNEKFTGKATFTADSSSNTAYMQLSSLTSEDSAVYYCARSGYYGSSLDYWGQGTTLTVSS
VL: GIVMTQSPASLSASVGETVTITCRAGENIHSYLAWYQQKQGKSPQLLVYNAKTLAEGVPSRFSGSGSGTQFSLKINSLQPEDFGSYYCQHHYGTPRTFGGGTKLEIK
notes: Murine mAb purified from the hybridoma subclone
Broadly, the EC50 is the concentration needed to bring the measured effect to its halfway point. Lower therefore signals greater potency. For the molecule B1, in assay [1], it took 0.64 nM to reach a half-maximal effect (EC50) and the “Max MFI” value worked out at 186 MFI. In addition, in assay [2], the binding result is “no binding”.

B2: Genentech-h6E7 (antibody, V domains shown)
VH: EVQLVQSGAEVKKPGASVKVSCKASGYSFTDYYMHWVRQAPGQGLEWIGRINPYNGAAFYSQNFKDRVTLTVDTSTSTAYLELSSLRSEDTAVYYCAIERGADLEGYAMDYWGQGTLVTVSS
VL: DIQMTQSPSSLSASVGDRVTITCRASQSVSTSSYNYMHWYQQKPGKPPKLLIKYASNLESGVPSRFSGSGSGTDFTLTISSLQPEDFATYYCQHSWEIPLTFGQGTKVEIK
Regarding B2, in assay [1], the midpoint of the response, the EC50, lay at 5 nM and the “Max MFI” value was found to be 265 MFI.

B3: scFv CDRH3 variant YDYDDTLDY (SEQ ID NO:145), yeast display (scFv)
scFv: QLQLQESGPGLVKPSETLSLTCTVSGFSLTNYGLHWIRQPPGKCLEWIGVIWSGGKTDYNPSLKSRVTISKDTSKNQFSLKLSSVQAADTAVYYCAKYDYDDTLDYWGQGTLVTVSSGGGGSGGGGSGGGGSGGGGSDIQMTQSPSSLSASVGDRVTITCHASQNINFWLSWYQQKPGKAPKLLIYEASNLHTGVPSRFSGSGSGTRFTLTISSLQPEDIATYYCQQSHSYPLTFGCGTKLEIK
notes: As m72
On to B3, for which the binding result in assay [3] is listed as “no binding”.

B4: scFv CDRH3 variant YDYDESLDY (SEQ ID NO:146), yeast display (scFv)
scFv: B3 scFv with D102E, T103S
notes: As m72
For B4, the binding result in assay [3] was “no binding”.

B5: scFv CDRH3 variant YDYDDVLDY (SEQ ID NO:144), yeast display (scFv)
scFv: B3 scFv with T103V
notes: As m72
Regarding B5, the binding result in assay [3] was “no binding”.

B6: 9F11.B7 (antibody, V domains shown)
VH: EVQLQESGGGLVQPGGSRKLSCAASGFTFNSFGMHWVRQAPEKGLEWVAFISSGSTSIYYANTVKGRFTISRDNPKNTLFLQMTSLRSEDTAMYYCARDGYPTGGAMDYWGQGTSVTVSS
VL: DIKMTQSPSSMYASLGERVTITCKASQDIYNYLSWFQLKPGKSPRPLIYRANILVSGVPSKFSGSGSGQDYSLTINSLEYEDLGIYYCLQFDAFPFTFGSGTKLEIK
notes: as for B1
One may read the Kd as a measure of binding affinity in units of concentration. High values mean lower affinity, low ones higher affinity. What is called koff is a measure of how fast the partners let go of each other. A higher koff goes with a short-lived complex. One may read the kon as the rate constant with which the complex forms. A lower kon goes with slow association. In assay [4], B6 displayed a dissociation constant Kd of 1.4 nM, a koff of 0.00157 s⁻¹ and a kon of 1.14e+06 M⁻¹ s⁻¹. Further, in assay [1], the midpoint of the response, the EC50, lay at 0.56 nM and the “Max MFI” value amounted to 217 MFI. For the same molecule, the binding result in assay [2] was “no binding”.

B7: Merus-CLL1 (antibody, V domains shown)
VH: EVQLVQSGAEVKKPGASVKVSCKASGYTFTSYYMHWVRQAPGQGLEWMGIINPSGGSTSYAQKFQGRVTMTRDTSTSTVYMELSSLRSEDTAVYYCARGNYGDEFDYWGQGTLVTVSS
VL: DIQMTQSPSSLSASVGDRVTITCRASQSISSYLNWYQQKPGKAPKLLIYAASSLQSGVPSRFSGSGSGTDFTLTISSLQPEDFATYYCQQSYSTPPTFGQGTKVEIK
Regarding B7, in assay [1], the EC50 came to 2.02 nM and the “Max MFI” value was determined as 201 MFI.
